In patent US20230073274A1 (NOVELMED THERAPEUTICS, published 2023):

How the values were obtained:
human properdin [1] = biological target: T1, human properdin (human, UniProt P27918 28-469); test: cell-based or functional assay
human properdin [2] = biological target: T1, human properdin; test: ELISA, properdin coated on the plate, OD 450 nm
human properdin [3] = biological target: T1, human properdin; test: properdin binding assay (method of Example 8, not restated)
human properdin [4] = biological target: T1, human properdin; test: cell-based or functional assay; remark: listed apart in the source

T1 sequence (P27918 28-469 limits assumed): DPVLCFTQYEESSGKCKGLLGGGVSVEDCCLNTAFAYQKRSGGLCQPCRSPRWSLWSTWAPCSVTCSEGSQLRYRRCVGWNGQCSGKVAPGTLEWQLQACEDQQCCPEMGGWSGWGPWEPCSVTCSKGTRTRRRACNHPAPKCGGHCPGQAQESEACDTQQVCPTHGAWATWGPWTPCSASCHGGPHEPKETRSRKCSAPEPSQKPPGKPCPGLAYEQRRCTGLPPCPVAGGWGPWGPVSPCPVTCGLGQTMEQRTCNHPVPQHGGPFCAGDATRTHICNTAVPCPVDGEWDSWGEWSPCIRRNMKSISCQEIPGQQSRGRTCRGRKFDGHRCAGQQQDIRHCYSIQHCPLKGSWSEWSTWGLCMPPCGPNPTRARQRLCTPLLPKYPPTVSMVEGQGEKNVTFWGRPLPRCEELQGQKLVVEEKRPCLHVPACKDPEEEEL

Row | IC50 (read off the curve): C3b deposition (sheet title: LPS C3b 10% NHS) (human properdin [1]) [µg/mL] | EC50 (read off the curve) (human properdin [2]) [nM] | Affinity (human properdin [3]) [pM] | C3b (µg/mL); inhibition of AP mediated C3b formation and deposition (human properdin [4]) [µg/mL] | MAC (µg/mL); inhibition of MAC formation (human properdin [4]) [µg/mL] | Binder
1 | ~0.5 | 0.3 to 0.4 | 322 | 1 | 1 | NMT18-100 (antibody, V domains shown) VH: EVQLVQSGAEVKKPGASVKVSCKASGYIFTNYPIHWVRQAPGQGLEWMGFIDPGGGYDEPDERFRDRVTMTADTSTSTAYMELSSLRSEDTAVYYCARRGGGYYLDYWGQGTTVTVSS VL: DIQMTQSPSSLSASVGDRVTITCRASQDISFFLNWYQQKPGKAPKLLIYYTSRYHSGVPSRFSGSGSGTDFTLTISSLQPEDFATYYCQHGQTLPWTFGQGTKLEIK
2 | ~0.5 | ~0.6 | 590 | 1 | 3 | NMT18-101 (antibody, V domains shown) VH: EVQLVQSGAEVKKPGASVKVSCKASGYIFTNYPIHWVRQAPGQGLEWMGFIDPGGGYDEPDERFRDRVTMTADTSTSTAYMELSSLRSEDTAVYYCARRGGGYYLDYWGQGTTVTVSS VL: DIQMTQSPSSLSASVGDRVTITCRASQDISFFLNWYQQKPGKAPKLLIYYTSRYHSGVPSRFSGSGSGTDFTLTISSLQPEDFATYYCQHGQTLPWTFGQGTKLEIK
3 | ~0.5 | 0.3 to 0.4 | 318 | 1 | 3 | NMT28-100 (antibody, V domains shown) VH: EVQLVQSGAEVKKPGASVKVSCKASGYIFTNYPIHWVRQAPGQGLEWMGFIDPGGGYDEPDERFRDRVTMTADTSTSTAYMELSSLRSEDTAVYYCARRGGGYYLDYWGQGTLVTVSS VL: DIQMTQSPSSLSASVGDRVTITCRASQDISFFLNWYQQKPGKAPKLLIYYTSRYHSGVPSRFSGSGSGTDFTLTISSLQPEDFATYYCQHGQTLPWTFGQGTKVEIK
4 | ~0.5 | ~0.4 | 425 | 1 | 3 | NMT28-101 (antibody, V domains shown) VH: EVQLVQSGAEVKKPGASVKVSCKASGYIFTNYPIHWVRQAPGQGLEWMGFIDPGGGYDEPDERFRDRVTMTADTSTSTAYMELSSLRSEDTAVYYCARRGGGYYLDYWGQGTLVTVSS VL: DIQMTQSPSSLSASVGDRVTITCRASQDISFFLNWYQQKPGKAPKLLIYYTSRYHSGVPSRFSGSGSGTDFTLTISSLQPEDFATYYCQHGQTLPWTFGQGTKVEIK

More lines, now with the values behind:

Row | Binder | IC50 (read off the curve): C3b deposition (sheet title: LPS C3b 10% NHS) (human properdin [1]) [µg/mL] | EC50 (read off the curve) (human properdin [2]) [nM] | Affinity (human properdin [3]) [pM] | C3b (µg/mL); inhibition of AP mediated C3b formation and deposition (human properdin [4]) [µg/mL] | MAC (µg/mL); inhibition of MAC formation (human properdin [4]) [µg/mL]
5 | NMT17-100 (antibody, V domains shown) VH: EVQLVQSGAEVKKPGASVKVSCKASGYIFTNYPIHWVRQAPGQGLEWMGFIDPGGGYDEPDERFRDRVTMTADTSTSTAYMELSSLRSEDTAVYYCARRGGGYYLDYWGQGTTVTVSS VL: DIQMTQSPSSLSASVGDRVTITCRASQDISFFLNWYQQKPGKAPKLLIYYTSRYHSGVPSRFSGSGSGTDFTLTISSLQPEDFATYYCQHGSTLPWTFGQGTKLEIK | ~0.4 | ~0.3 | 263 | 1 | 1
6 | NMT17-101 (antibody, V domains shown) VH: EVQLVQSGAEVKKPGASVKVSCKASGYIFTNYPIHWVRQAPGQGLEWMGFIDPGGGYDEPDERFRDRVTMTADTSTSTAYMELSSLRSEDTAVYYCARRGGGYYLDYWGQGTTVTVSS VL: DIQMTQSPSSLSASVGDRVTITCRASQDISFFLNWYQQKPGKAPKLLIYYTSRYHSGVPSRFSGSGSGTDFTLTISSLQPEDFATYYCQHGSTLPWTFGQGTKLEIK | ~0.5 | ~0.5 | 499 | 1 | 1
